Results on 1 protein are retold here after ChEMBL document CHEMBL1147688, “Development of a dual fluorogenic and chromogenic dipeptidyl peptidase IV substrate” (Bioorg Med Chem Lett, 2006).

Substrate in this data set: NCC(=O)N1CCC[C@H]1C(=O)NCC(=O)N1CCC[C@H]1C(=O)Nc1cc2oc3cc(=[N+](CCCS(=O)(=O)O)CCCS(=O)(=O)O)ccc-3nc2c2ccccc12
The data set is described as follows: Affinity for DPP4. The conditions noted are these: Homo sapiens.

B1: Dipeptidyl peptidase 4 (Homo sapiens), P27487 (protein)
chain: MKTPWKVLLGLLGAAALVTIITVPVVLLNKGTDDATADSRKTYTLTDYLKNTYRLKLYSLRWISDHEYLYKQENNILVFNAEYGNSSVFLENSTFDEFGHSINDYSISPDGQFILLEYNYVKQWRHSYTASYDIYDLNKRQLITEERIPNNTQWVTWSPVGHKLAYVWNNDIYVKIEPNLPSYRITWTGKEDIIYNGITDWVYEEEVFSAYSALWWSPNGTFLAYAQFNDTEVPLIEYSFYSDESLQYPKTVRVPYPKAGAVNPTVKFFVVNTDSLSSVTNATSIQITAPASMLIGDHYLCDVTWATQERISLQWLRRIQNYSVMDICDYDESSGRWNCLVARQHIEMSTTGWVGRFRPSEPHFTLDGNSFYKIISNEEGYRHICYFQIDKKDCTFITKGTWEVIGIEALTSDYLYYISNEYKGMPGGRNLYKIQLSDYTKVTCLSCELNPERCQYYSVSFSKEAKYYQLRCSGPGLPLYTLHSSVNDKGLRVLEDNSALDKMLQNVQMPSKKLDFIILNETKFWYQMILPPHFDKSKKYPLLLDVYAGPCSQKADTVFRLNWATYLASTENIIVASFDGRGSGYQGDKIMHAINRRLGTFEVEDQIEAARQFSKMGFVDNKRIAIWGWSYGGYVTSMVLGSGSGVFKCGIAVAPVSRWEYYDSVYTERYMGLPTPEDNLDHYRNSTVMSRAENFKQVEYLLIHGTADDNVHFQQSAQISKALVDVGVDFQAMWYTDEDHGIASSTAHQHIYTHMSHFIKQCFSLP
With B1, the Km amounted to 56 µM.

As usually defined, the Km is the substrate concentration at which the rate is half of its maximum.
